What follows are sequences tested on Escherichia coli TOP10 (assay: shrunken log2 fold change of peptide-encoding DNA abundance (4.5 h post-induction vs induction); higher = less antimicrobial activity (less host growth inhibition)). Conditions: time post-induction: 4.5 h; library: site-saturation at positions 5, 18, 19, 20.
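Note: peptides expressed intracellularly from a pBAD plasmid library in pooled LB shake-flask culture, induced with 0.3% L-arabinose, DNA abundance read by NGS, three biological replicates, DESeq2 with apeglm shrinkage.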

| Sequence | shrunken log2 fold change |
| --- | --- |
| RRIRNRPPRLPRPRPRPRNMPRP | -0.171 |
| RRIRNRPPRLPRPRPRPRNQPRP | -0.182 |
| RRIRNRPPRLPRPRPRPRNRPRP | -0.000801 |
| RRIRNRPPRLPRPRPRPRQFPRP | 0.0733 |
| RRIRNRPPRLPRPRPRPRQWPRP | 0.299 |
| RRIRNRPPRLPRPRPRPRSLPRP | 0.0993 |
| RRIRNRPPRLPRPRPRPRSWPRP | 0.201 |
| RRIRNRPPRLPRPRPRPRTIPRP | -0.221 |
| RRIRNRPPRLPRPRPRPRTVPRP | -0.403 |
| RRIRNRPPRLPRPRPRPRVFPRP | -0.036 |
| RRIRNRPPRLPRPRPRPRWAPRP | 0.417 |
| RRIRNRPPRLPRPRPRPRWPPRP | 0.286 |
| RRIRNRPPRLPRPRPRPSAWPRP | -0.135 |
| RRIRNRPPRLPRPRPRPSAYPRP | -0.42 |
| RRIRNRPPRLPRPRPRPSELPRP | -0.135 |
| RRIRNRPPRLPRPRPRPSEPPRP | -0.0146 |
| RRIRNRPPRLPRPRPRPSFFPRP | -0.367 |
| RRIRNRPPRLPRPRPRPSFGPRP | 0.00557 |
| RRIRNRPPRLPRPRPRPSFSPRP | -0.322 |
| RRIRNRPPRLPRPRPRPSGKPRP | 0.0521 |
| RRIRNRPPRLPRPRPRPSGMPRP | -0.207 |
| RRIRNRPPRLPRPRPRPSHDPRP | -0.516 |
| RRIRNRPPRLPRPRPRPSHKPRP | -0.291 |
| RRIRNRPPRLPRPRPRPSIDPRP | -0.782 |
| RRIRNRPPRLPRPRPRPSIEPRP | -0.214 |

| Sequence | shrunken log2 fold change |
| --- | --- |
| RRIRNRPPRLPRPRPRPSKLPRP | -0.582 |
| RRIRNRPPRLPRPRPRPSKWPRP | -0.213 |
| RRIRNRPPRLPRPRPRPSLLPRP | -0.19 |
| RRIRNRPPRLPRPRPRPSMGPRP | -0.0455 |
| RRIRNRPPRLPRPRPRPSMPPRP | -0.139 |
| RRIRNRPPRLPRPRPRPSNLPRP | -0.457 |
| RRIRNRPPRLPRPRPRPSNNPRP | -0.96 |
| RRIRNRPPRLPRPRPRPSPGPRP | 0.431 |
| RRIRNRPPRLPRPRPRPSPPPRP | -0.0562 |
| RRIRNRPPRLPRPRPRPSPSPRP | -0.0323 |
| RRIRNRPPRLPRPRPRPSRRPRP | 0.27 |
| RRIRNRPPRLPRPRPRPSTRPRP | 0.326 |
| RRIRNRPPRLPRPRPRPSVWPRP | 0.228 |
| RRIRNRPPRLPRPRPRPSWGPRP | -0.139 |
| RRIRNRPPRLPRPRPRPSWVPRP | -0.289 |
| RRIRNRPPRLPRPRPRPSYYPRP | -0.877 |
| RRIRNRPPRLPRPRPRPTAHPRP | 0.0105 |
| RRIRNRPPRLPRPRPRPTAWPRP | -0.0125 |
| RRIRNRPPRLPRPRPRPTCAPRP | 0.161 |
| RRIRNRPPRLPRPRPRPTDTPRP | -0.08 |
| RRIRNRPPRLPRPRPRPTFYPRP | -0.376 |
| RRIRNRPPRLPRPRPRPTHCPRP | 0.085 |
| RRIRNRPPRLPRPRPRPTHLPRP | 0.109 |
| RRIRNRPPRLPRPRPRPTHWPRP | 0.661 |
| RRIRNRPPRLPRPRPRPTIYPRP | -0.106 |

| Sequence | shrunken log2 fold change |
| --- | --- |
| RRIRNRPPRLPRPRPRPTKYPRP | -0.564 |
| RRIRNRPPRLPRPRPRPTLKPRP | 0.0241 |
| RRIRNRPPRLPRPRPRPTLWPRP | 0.326 |
| RRIRNRPPRLPRPRPRPTMSPRP | -0.453 |
| RRIRNRPPRLPRPRPRPTNEPRP | 0.239 |
| RRIRNRPPRLPRPRPRPTNVPRP | 0.0366 |
| RRIRNRPPRLPRPRPRPTPNPRP | 0.185 |
| RRIRNRPPRLPRPRPRPTQMPRP | 0.0452 |
| RRIRNRPPRLPRPRPRPTRQPRP | 0.196 |
| RRIRNRPPRLPRPRPRPTSTPRP | -0.7 |
| RRIRNRPPRLPRPRPRPTVKPRP | -0.00906 |
| RRIRNRPPRLPRPRPRPVDMPRP | -0.104 |
| RRIRNRPPRLPRPRPRPVETPRP | 0.157 |
| RRIRNRPPRLPRPRPRPVEWPRP | 0.00664 |
| RRIRNRPPRLPRPRPRPVFNPRP | -0.242 |
| RRIRNRPPRLPRPRPRPVFQPRP | -0.623 |
| RRIRNRPPRLPRPRPRPVGLPRP | 0.0874 |
| RRIRNRPPRLPRPRPRPVGWPRP | 0.855 |
| RRIRNRPPRLPRPRPRPVIFPRP | -0.565 |
| RRIRNRPPRLPRPRPRPVLKPRP | 0.0485 |
| RRIRNRPPRLPRPRPRPVLQPRP | -0.157 |
| RRIRNRPPRLPRPRPRPVLSPRP | 0.0114 |
| RRIRNRPPRLPRPRPRPVMEPRP | -0.173 |
| RRIRNRPPRLPRPRPRPVMKPRP | 0.0939 |
| RRIRNRPPRLPRPRPRPVNAPRP | 0.16 |

| Sequence | shrunken log2 fold change |
| --- | --- |
| RRIRNRPPRLPRPRPRPVNPPRP | -0.216 |
| RRIRNRPPRLPRPRPRPVNSPRP | 0.0303 |
| RRIRNRPPRLPRPRPRPVNWPRP | -0.0184 |
| RRIRNRPPRLPRPRPRPVQMPRP | 0.0259 |
| RRIRNRPPRLPRPRPRPVQWPRP | -0.0368 |
| RRIRNRPPRLPRPRPRPVRDPRP | 0.177 |
| RRIRNRPPRLPRPRPRPVRHPRP | -0.0637 |
| RRIRNRPPRLPRPRPRPVRIPRP | 0.0513 |
| RRIRNRPPRLPRPRPRPVRVPRP | 0.0666 |
| RRIRNRPPRLPRPRPRPVSRPRP | -0.152 |
| RRIRNRPPRLPRPRPRPVVDPRP | -0.274 |
| RRIRNRPPRLPRPRPRPVWDPRP | 0.325 |
| RRIRNRPPRLPRPRPRPVYAPRP | -0.128 |
| RRIRNRPPRLPRPRPRPWAAPRP | -0.109 |
| RRIRNRPPRLPRPRPRPWAVPRP | 0.0374 |
| RRIRNRPPRLPRPRPRPWCIPRP | -0.573 |
| RRIRNRPPRLPRPRPRPWDDPRP | 0.0288 |
| RRIRNRPPRLPRPRPRPWDKPRP | 0.0447 |
| RRIRNRPPRLPRPRPRPWDQPRP | 0.0603 |
| RRIRNRPPRLPRPRPRPWEFPRP | -0.00197 |
| RRIRNRPPRLPRPRPRPWFRPRP | 0.0475 |
| RRIRNRPPRLPRPRPRPWHNPRP | -0.146 |
| RRIRNRPPRLPRPRPRPWIFPRP | -0.201 |
| RRIRNRPPRLPRPRPRPWIWPRP | -0.151 |
| RRIRNRPPRLPRPRPRPWLEPRP | -0.00992 |

| Sequence | shrunken log2 fold change |
| --- | --- |
| RRIRNRPPRLPRPRPRPWLIPRP | -0.0217 |
| RRIRNRPPRLPRPRPRPWMKPRP | -0.0173 |
| RRIRNRPPRLPRPRPRPWMMPRP | -0.594 |
| RRIRNRPPRLPRPRPRPWMVPRP | 0.131 |
| RRIRNRPPRLPRPRPRPWNFPRP | -0.0018 |
| RRIRNRPPRLPRPRPRPWNRPRP | 0.0601 |
| RRIRNRPPRLPRPRPRPWPLPRP | -0.0801 |
| RRIRNRPPRLPRPRPRPWRLPRP | 0.0636 |
| RRIRNRPPRLPRPRPRPWSQPRP | -0.0539 |
| RRIRNRPPRLPRPRPRPWWCPRP | -0.111 |
| RRIRNRPPRLPRPRPRPWWFPRP | -0.0934 |
| RRIRNRPPRLPRPRPRPWYWPRP | -0.109 |
| RRIRNRPPRLPRPRPRPYAAPRP | -0.4 |
| RRIRNRPPRLPRPRPRPYADPRP | -0.161 |
| RRIRNRPPRLPRPRPRPYAFPRP | 0.0147 |
| RRIRNRPPRLPRPRPRPYALPRP | -0.399 |
| RRIRNRPPRLPRPRPRPYCFPRP | -0.516 |
| RRIRNRPPRLPRPRPRPYCKPRP | -0.258 |
| RRIRNRPPRLPRPRPRPYCQPRP | -0.358 |
| RRIRNRPPRLPRPRPRPYCSPRP | -0.0619 |
| RRIRNRPPRLPRPRPRPYDDPRP | 0.00769 |
| RRIRNRPPRLPRPRPRPYDEPRP | -0.0237 |
| RRIRNRPPRLPRPRPRPYIMPRP | -0.741 |
| RRIRNRPPRLPRPRPRPYKNPRP | -0.941 |
| RRIRNRPPRLPRPRPRPYKQPRP | -0.0495 |

| Sequence | shrunken log2 fold change |
| --- | --- |
| RRIRNRPPRLPRPRPRPYLYPRP | -0.317 |
| RRIRNRPPRLPRPRPRPYMEPRP | -0.0924 |
| RRIRNRPPRLPRPRPRPYMKPRP | -0.03 |
| RRIRNRPPRLPRPRPRPYPVPRP | 0.00968 |
| RRIRNRPPRLPRPRPRPYPWPRP | -0.0963 |
| RRIRNRPPRLPRPRPRPYQAPRP | 0.036 |
| RRIRNRPPRLPRPRPRPYQEPRP | -0.00962 |
| RRIRNRPPRLPRPRPRPYQFPRP | -0.225 |
| RRIRNRPPRLPRPRPRPYQGPRP | -0.00804 |
| RRIRNRPPRLPRPRPRPYRCPRP | -0.153 |
| RRIRNRPPRLPRPRPRPYSCPRP | -1.1 |
| RRIRNRPPRLPRPRPRPYTGPRP | -0.0137 |
| RRIRNRPPRLPRPRPRPYYFPRP | -0.695 |
| RRIRPRPPRLPRPRPRPAAPPRP | 0.467 |
| RRIRPRPPRLPRPRPRPAATPRP | 0.809 |
| RRIRPRPPRLPRPRPRPACQPRP | 0.22 |
| RRIRPRPPRLPRPRPRPADIPRP | 0.142 |
| RRIRPRPPRLPRPRPRPADTPRP | 0.221 |
| RRIRPRPPRLPRPRPRPAFKPRP | 0.192 |
| RRIRPRPPRLPRPRPRPAFPPRP | 0.409 |
| RRIRPRPPRLPRPRPRPAFYPRP | -0.00911 |
| RRIRPRPPRLPRPRPRPAGLPRP | 0.279 |
| RRIRPRPPRLPRPRPRPAGMPRP | -0.00962 |
| RRIRPRPPRLPRPRPRPAICPRP | 0.0446 |
| RRIRPRPPRLPRPRPRPAIFPRP | -0.0302 |
